# Results taken from patent publication US20200147235A1 (AbbVie / Abbott, published 2020).
# Residue numbers refer to the chain shown, from its start.
# T1: Human CD98 ECD with N-terminal His-tag (human, UniProt P08195 105-529)
# T1 construct: The entry includes the linker and the polyhistidine tag; also called huCD98 ECD
# T1 sequence: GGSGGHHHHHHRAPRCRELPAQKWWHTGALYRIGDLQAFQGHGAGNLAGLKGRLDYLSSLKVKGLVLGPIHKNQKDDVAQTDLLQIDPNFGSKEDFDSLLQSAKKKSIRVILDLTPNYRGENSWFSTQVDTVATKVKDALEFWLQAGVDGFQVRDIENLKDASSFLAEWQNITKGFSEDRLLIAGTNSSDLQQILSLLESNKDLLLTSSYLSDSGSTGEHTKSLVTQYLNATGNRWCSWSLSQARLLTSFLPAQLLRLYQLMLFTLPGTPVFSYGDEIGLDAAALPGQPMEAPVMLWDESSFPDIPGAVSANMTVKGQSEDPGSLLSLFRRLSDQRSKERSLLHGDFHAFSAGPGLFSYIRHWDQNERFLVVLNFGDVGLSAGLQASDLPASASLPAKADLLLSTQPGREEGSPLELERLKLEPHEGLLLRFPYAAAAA
# T2: Cynomolgus monkey CD98 ECD with C-terminal His-tag (SEQ ID NO: 127) (cynomolgus monkey, UniProt P08195 105-529 (human entry))
# T2 construct: The entry includes the linker and the polyhistidine tag; also called cyCD98 ECD
# T2 chain: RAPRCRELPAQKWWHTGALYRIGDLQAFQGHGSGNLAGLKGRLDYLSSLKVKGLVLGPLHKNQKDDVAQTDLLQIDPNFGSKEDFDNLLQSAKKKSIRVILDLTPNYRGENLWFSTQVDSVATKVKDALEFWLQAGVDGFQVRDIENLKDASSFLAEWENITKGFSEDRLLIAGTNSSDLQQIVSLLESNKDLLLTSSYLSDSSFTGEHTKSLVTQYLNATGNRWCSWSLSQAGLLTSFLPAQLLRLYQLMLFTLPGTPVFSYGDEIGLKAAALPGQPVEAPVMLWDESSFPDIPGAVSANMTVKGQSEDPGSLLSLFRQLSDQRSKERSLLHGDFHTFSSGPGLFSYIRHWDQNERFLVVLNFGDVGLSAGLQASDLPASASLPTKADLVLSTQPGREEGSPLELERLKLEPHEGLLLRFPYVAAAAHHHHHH
# T3: Cynomolgus monkey CD98 ECD with C-terminal His-tag (cynomolgus monkey, UniProt P08195 105-529 (human entry))
# T3 construct: The entry includes the linker and the polyhistidine tag; also called cyCD98 ECD
# T3 chain: T2 chain
# T4: Human CD98 ECD with C-terminal His-tag (human, UniProt P08195 105-529)
# T4 construct: The entry includes the linker and the polyhistidine tag; also called huCD98 ECD
# T4 sequence: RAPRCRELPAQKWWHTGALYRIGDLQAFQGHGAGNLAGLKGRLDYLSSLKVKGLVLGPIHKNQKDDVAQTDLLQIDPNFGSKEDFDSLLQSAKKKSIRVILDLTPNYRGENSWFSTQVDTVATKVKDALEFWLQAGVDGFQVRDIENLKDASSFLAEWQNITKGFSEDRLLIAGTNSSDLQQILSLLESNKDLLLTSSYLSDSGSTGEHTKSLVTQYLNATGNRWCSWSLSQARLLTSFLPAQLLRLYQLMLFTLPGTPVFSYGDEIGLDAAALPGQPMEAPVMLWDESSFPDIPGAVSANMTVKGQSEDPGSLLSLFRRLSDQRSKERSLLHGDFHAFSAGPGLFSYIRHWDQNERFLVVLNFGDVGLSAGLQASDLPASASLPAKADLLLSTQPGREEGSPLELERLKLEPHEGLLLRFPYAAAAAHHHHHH
# B1: huAb106 (antibody, V domains shown)
# VH: EVQLVQSGAEVKKPGASVKVSCKASGFTFSDYTMAWVRQAPGQGLEWVATIIYSGRGTYYRDAVKGRFTITRDNSTSTLYLELSSLRSEDTAVYYCARQSDHTYYYWGYFDYWGQGTMVTVSS
# VL: DIVMTQTPLSLPVTPGEPASINCKSSQSLLFSGNQKNYLAWYLQKPGQSPQLLIYWASTRQSGVPDRFSGSGSGTDFTLKISRVEAEDVGIYYCQQYYDVPYTFGQGTKLEIK
# notes: Framework re-engineered humanized clone (parent huAb15v1), expressed as full-length IgG
# B2: huAb108 (antibody, human IgG1, kappa, L234A L235A, V domains shown)
# VH: B1 VH with H102D
# VL: DIVMTQTPLSLPVTPGEPASINCKSSQSLLFSGNQKNYLAWYLQKPGQSPQLLIYWASTRQSGVPDRFSGSGSGTDFTLKISRVEAEDVGIYYCQQYYDVPYTFGQGTKLEIKR
# notes: Framework re-engineered humanized clone (parent huAb15v2); also called CL-huAb108
# B3: huAb110 (antibody, human IgG1, kappa, L234A L235A, V domains shown)
# VH: B1 VH with S54D, G55A, H102D
# VL: B2 VL with D99S, V100S
# notes: Framework re-engineered humanized clone (parent huAb15v6); also called CL-huAb110
# B4: huAb109 (antibody, V domains shown)
# VH: EVQLVESGGGLVQPGGSLRLSCAASGFTFSDYTMAWVRQAPGKGLEWVATIIYDARGTYYRDAVKGRFTISRDNAKNTLYLQMNSLRAEDTAVYYCARQSDDTYYYWGYFDYWGQGTMVTVSS
# VL: B1 VL with D99S, V100S
# notes: Framework re-engineered humanized clone (parent huAb15v6), expressed as full-length IgG
# B5: huAb105 (antibody, V domains shown)
# VH: B4 VH with D54S, A55G, D102H
# VL: B1 VL
# notes: as for B1
# B6: huAb15v2 (antibody, V domains shown)
# VH: B4 VH with L11V, G16R, D54S, A55G, A75S, N77S
# VL: DIVMTQSPDSLAVSLGERATINCKSSQSLLFSGNQKNYLAWYQQKPGQSPKLLIYWASTRQSGVPDRFSGSGSGTDFTLTIRSLQAEDVAIYYCQQYYDVPYTFGQGTKLEIK
# notes: Humanized, further engineered clone of chAb15, converted to IgG and expressed as a full-length antibody
# B7: huAb15v4 (antibody, V domains shown)
# VH: B4 VH with L11V, G16R, D54T, A55G, A75S, N77S
# VL: B6 VL
# notes: as for B6
# B8: huAb15v7 (antibody, V domains shown)
# VH: B4 VH with L11V, G16R, A75S, N77S
# VL: B6 VL with D99G, V100S
# notes: as for B6
# B9: huAb15v6 (antibody, V domains shown)
# VH: B4 VH with L11V, G16R, A75S, N77S
# VL: B6 VL with D99S, V100S
# notes: as for B6
# B10: huAb15v3 (antibody, V domains shown)
# VH: B4 VH with L11V, G16R, D54S, A55G, A75S, N77S
# VL: B6 VL with D99G, V100S
# notes: as for B6
# B11: huAb15v5 (antibody, V domains shown)
# VH: B4 VH with L11V, G16R, D54T, A55G, A75S, N77S
# VL: B6 VL with D99S, V100S
# notes: as for B6
# B12: huAb15v1 (antibody, V domains shown)
# VH: B4 VH with L11V, G16R, D54S, A55G, A75S, N77S, D102H
# VL: B6 VL
# notes: as for B6
# B13: huAb3v1 (antibody, V domains shown)
# VH: EVQLVESGGGLVQPGRSLRLSCTTSGFTFIDYYMSWVRQAPGKGLEWLGFIRNKANRYTTEYSASVKGRFTISRDNSKSILYLQMNSLKTEDTAVYYCTRDRPAWFVYWGQGTLVTVSS
# VL: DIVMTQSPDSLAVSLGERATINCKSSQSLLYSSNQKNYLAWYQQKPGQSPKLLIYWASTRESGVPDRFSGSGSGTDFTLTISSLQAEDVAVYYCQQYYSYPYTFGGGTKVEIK
# notes: Humanized, further engineered clone of chAb3, converted to IgG and expressed as a full-length antibody
# B14: huAb3v2 (antibody, V domains shown)
# VH: B13 VH with N56Y, R57G
# VL: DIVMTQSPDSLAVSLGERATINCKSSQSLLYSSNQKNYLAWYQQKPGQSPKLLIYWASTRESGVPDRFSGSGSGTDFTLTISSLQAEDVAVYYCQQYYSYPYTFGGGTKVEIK
# notes: as for B13
# Biological target: T1, Human CD98 ECD with N-terminal His-tag
# Test: SPR (Biacore), recombinant CD98 ECD
Binder,Kd [nM],koff [s⁻¹],kon [M⁻¹ s⁻¹]
B1,0.16,2.2e-05,140000
B2,0.55,4.1e-05,75000
B3,2.3,0.0003,130000
B4,1.1,0.00017,160000
B5,0.17,2.4e-05,140000

# Biological target: T2, Cynomolgus monkey CD98 ECD with …
# Test: SPR (Biacore), recombinant CD98 ECD
Binder,Kd [nM],koff [s⁻¹],kon [M⁻¹ s⁻¹]
B1,2.2,9.5e-05,43000
B2,4.6,0.00014,29000
B3,23,0.00051,23000
B4,12,0.00031,26000
B5,1.4,5.3e-05,38000

# Biological target: T3, Cynomolgus monkey CD98 ECD with …
# Test: SPR (Biacore), antibody captured on anti-Fc surface, CD98 ECD in solution
# Protocol: (§1) The binding kinetics of these purified mouse and rat monoclonal anti-CD98 antibodies for purified recombinant CD98 protein (extracellular domain. ECD) were determined by surface plasmon resonance-based measurements made on Biacore T100/T200 instruments (GE Healthcare, Piscataway, N.J.) at 25° C. using an anti-Fc capture assay approach. Binding kinetic measurements were made in the assay buffer HBS-EP+: 10 mM Hepes, pH 7.4, 150 mM NaCl, 3 mM EDTA, 0.05% Tween 20). For example, approximately 8000 RU of anti-Fc (species specific) polyclonal antibody (Thermo Fisher Scientific Inc. Rockford, Ill.) diluted in 10 mM sodium acetate (pH 4.5) was directly immobilized across a CM5 research grade biosensor chip using a standard amine coupling kit according to manufacturer's instructions and procedures at 25 μg/ml. Unreacted moieties on the biosensor surface were blocked with ethanolamine. The test antibody to be captured as a ligand was diluted in running buffer to ˜0.5 μg/mL and injected over anti-Fc surface at a flow rate of 10 μL/min, CD98 binding and dissociation were observed under a continuous flow rate of 80 μL/min. Human and cynomolgus monkey CD98 ECDs, both with a C-terminal His-tag, are used for this study (Table 3). After each cycle the anti-Fc capture surface was regenerated using 10 mM Glycine-HCl, pH 1.5. During the assay, all measurements were referenced against the capture surface alone (i.e., with no captured test antibody) and buffer-only injections (no antigen) were used for double referencing. For kinetic analysis, rate equations derived from the 1:1 Langmuir binding model were fitted simultaneously, globally and with mass transfer term included to multiple referenced antigen binding curves using Biacore T100T200 Evaluation software.
# (§2) The binding kinetics of the recombinant anti-CD98 chimeric antibodies for purified recombinant CD98 protein (extracellular domain, ECD) were determined by surface plasmon resonance-based measurements, as described in the Example 4.
Binder,Kd [nM],koff [s⁻¹],kon [M⁻¹ s⁻¹]
B6,2.3,4.8e-05,21000
B7,2.6,5e-05,20000
B8,30,0.00043,14000
B9,34,0.00049,14000
B10,7.6,0.00014,18000
B11,11,0.00018,17000
B12,1,2.6e-05,26000
B13,23,0.00092,40000
B14,17,0.00049,29000

# Biological target: T4, Human CD98 ECD with C-terminal His-tag
# Test: as above
# Protocol: as §1, §2
Binder,Kd [nM],koff [s⁻¹],kon [M⁻¹ s⁻¹]
B6,1.1,4.6e-05,42000
B7,0.81,2.8e-05,35000
B8,5.9,0.00021,35000
B9,6.7,0.00026,38000
B10,2,8.5e-05,44000
B11,3.1,0.00013,41000
B12,0.43,2.3e-05,53000
B13,13,0.0023,180000
B14,4.9,0.0013,260000
